Assay results taken from patent US20030157554A1 (published 2003).
Like-named read-outs stand apart in the source and are kept apart here.

B1: S100A1-1 (other, human, UniProt P23297 1-94, looked up)
chain: MGSELETAMETLINVFHAHSGKEGDKYKLSKKELKELLQTELSGFLDAQKDVDAVDKVMKELDENGDGEVDFQEYVVLVAALTVACNNFFWENS
notes: Full-length bait; also called full length S100A1
B3: S100A9 (Genbank ID: M26311) (other, human, UniProt P06702 1-114, looked up)
chain: MTCKMSQLERNIETIINTFHQYSVKLGHPDTLNQGEFKELVRKDLQNFLKKENKNEKVIEHIMEDLDTNADKQLSFEEFIMLMARLTWASHEKMHEGDEGPGHHHKPGLGEGTP
notes: range 1-114; Prey from liver and muscle libraries
B5: S100B-1 (other, human, UniProt P04271 1-92, looked up)
chain: MSELEKAMVALIDVFHQYSGREGDKHKLKKSELKELINNELSHFLEEIKEQEVVDKVMETLDNDGDGECDFQEFMAFVAMVTTACHEFFEHE
notes: Full-length bait; also called full length S100B
B7: NAPA1 (Genbank ID: U39412) (other, human, UniProt P54920 1-295, looked up)
chain: MDNSGKEAEAMALLAEAERKVKNSQSFFSGLFGGSSKIEEACEIYARAANMFKMAKNWSAAGNAFCQAAQLHLQLQSKHDAATCFVDAGNAFKKADPQEAINCLMRAIEIYTDMGRFTIAAKHHISIAEIYETELVDIEKAIAHYEQSADYYKGEESNSSANKCLLKVAGYAALLEQYQKAIDIYEQVGTNAMDSPLLKYSAKDYFFKAALCHFCIDMLNAKLAVQKYEELFPAFSDSRECKLMKKLLEAHEEQNVDSYTESVKEYDSISRLDQWLTTMLLRIKKTIQGDEEDLR
notes: Full-length bait; Gal4-BD fusion

Legend:
[1] = biological target: T1, Synphilin (Genbank ID: AF076929) (human, UniProt Q9Y6H5 335-660, limits assumed); assay: Y2H 1x1 mating, binder AD fusion, target BD fusion
T1 construct: range 335-~660; Prey from kidney library; end of the fragment approximate; also called Synphilin I; Synphilin 1
T1 sequence (looked up): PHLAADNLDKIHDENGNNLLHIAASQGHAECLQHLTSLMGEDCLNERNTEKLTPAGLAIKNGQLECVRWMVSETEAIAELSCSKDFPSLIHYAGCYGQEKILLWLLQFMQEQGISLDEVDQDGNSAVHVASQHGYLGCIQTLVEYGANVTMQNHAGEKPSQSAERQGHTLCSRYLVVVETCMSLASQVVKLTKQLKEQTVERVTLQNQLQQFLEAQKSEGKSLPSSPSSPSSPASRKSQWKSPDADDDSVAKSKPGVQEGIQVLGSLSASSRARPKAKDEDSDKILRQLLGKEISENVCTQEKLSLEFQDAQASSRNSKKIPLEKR

[2] = biological target: T2, LZIP (Genbank ID: AF029674) (human, UniProt O43889 1-371); assay: Y2H 1x1 mating, binder AD fusion, target BD fusion
T2 construct: range 1-372; Prey from liver and muscle libraries; also called LIZP
T2 sequence (looked up): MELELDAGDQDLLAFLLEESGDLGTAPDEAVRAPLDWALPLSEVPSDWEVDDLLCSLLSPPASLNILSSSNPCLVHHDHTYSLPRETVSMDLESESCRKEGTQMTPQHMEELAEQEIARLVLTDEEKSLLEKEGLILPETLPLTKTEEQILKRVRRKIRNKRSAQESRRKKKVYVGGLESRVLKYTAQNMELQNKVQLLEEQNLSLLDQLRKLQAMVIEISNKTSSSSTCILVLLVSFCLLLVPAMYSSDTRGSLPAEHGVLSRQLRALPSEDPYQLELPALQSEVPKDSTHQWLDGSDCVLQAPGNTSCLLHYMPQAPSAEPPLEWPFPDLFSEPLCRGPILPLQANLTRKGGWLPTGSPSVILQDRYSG

[3] = biological target: the molecule itself; assay: Y2H 1x1 mating, binder AD fusion, target BD fusion
[4] = biological target: B7; assay: Y2H library screen, binder bait, target prey
[5] = biological target: T3, FHOS (Genbank ID: AF113615) (human, UniProt Q9Y613 964-1164); assay: Y2H 1x1 mating, binder AD fusion, target BD fusion
T3 construct: range 964-1164; Prey from muscle library
T3 sequence (looked up): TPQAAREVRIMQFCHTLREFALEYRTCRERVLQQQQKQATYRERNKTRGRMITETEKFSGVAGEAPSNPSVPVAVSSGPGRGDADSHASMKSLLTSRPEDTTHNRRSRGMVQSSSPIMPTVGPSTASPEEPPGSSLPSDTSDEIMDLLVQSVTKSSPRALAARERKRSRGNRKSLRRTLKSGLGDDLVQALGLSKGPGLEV

[6] = biological target: T4, ATPase (ATP6N1) (Genbank ID: u73006) (human, UniProt Q93050 1-300, limits assumed); assay: Y2H 1x1 mating, binder AD fusion, target BD fusion
T4 construct: range 1-~300; Prey from liver library; end of the fragment approximate; also called Vacuolar-type H(+) ATPase; ATP6N17

[7] = biological target: T1, Synphilin (Genbank ID: AF076929); assay: Y2H 1x1 mating, binder AD fusion, target BD fusion; remark: listed apart in the source
[8] = biological target: the molecule itself; assay: Y2H 1x1 mating, binder AD fusion, target BD fusion; remark: listed apart in the source
[9] = biological target: T5, STAU (Genbank ID: AF061939) (human, UniProt O95793 6-577); assay: Y2H 1x1 mating, binder AD fusion, target BD fusion
T5 construct: range 6-578; Prey from brain library; also called Staufen
T5 sequence (looked up): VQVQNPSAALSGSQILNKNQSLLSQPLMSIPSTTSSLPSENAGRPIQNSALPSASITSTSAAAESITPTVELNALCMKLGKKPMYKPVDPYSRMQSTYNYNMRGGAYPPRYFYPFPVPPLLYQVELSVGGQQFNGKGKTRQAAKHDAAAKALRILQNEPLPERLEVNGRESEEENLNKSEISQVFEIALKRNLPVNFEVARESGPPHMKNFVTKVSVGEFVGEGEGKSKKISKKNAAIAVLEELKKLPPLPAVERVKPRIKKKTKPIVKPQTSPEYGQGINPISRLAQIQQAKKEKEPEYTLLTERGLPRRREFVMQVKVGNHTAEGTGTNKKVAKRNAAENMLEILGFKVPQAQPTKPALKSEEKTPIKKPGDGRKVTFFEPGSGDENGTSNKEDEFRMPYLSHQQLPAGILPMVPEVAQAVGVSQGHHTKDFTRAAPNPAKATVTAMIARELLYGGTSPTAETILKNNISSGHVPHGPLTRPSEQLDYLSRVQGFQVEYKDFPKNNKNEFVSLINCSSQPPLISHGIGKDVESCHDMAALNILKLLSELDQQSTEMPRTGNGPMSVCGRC

[10] = biological target: the molecule itself; assay: Y2H, baits tested against each other
[11] = biological target: S100A6 (Genbank ID: M14300) (human, UniProt P06703 1-90); assay: Y2H 1x1 mating, binder AD fusion, target BD fusion
[12] = biological target: B3; assay: Y2H 1x1 mating, binder AD fusion, target BD fusion
[13] = biological target: T6, Fibrinogen (Genbank ID: M58569), S100A1 interactor (human, UniProt P02671 345-545, limits assumed); assay: Y2H 1x1 mating, binder AD fusion, target BD fusion
T6 construct: range 345-~545; Prey from liver library found with S100A1; also called fibrinogen alpha subunit
T6 sequence (looked up): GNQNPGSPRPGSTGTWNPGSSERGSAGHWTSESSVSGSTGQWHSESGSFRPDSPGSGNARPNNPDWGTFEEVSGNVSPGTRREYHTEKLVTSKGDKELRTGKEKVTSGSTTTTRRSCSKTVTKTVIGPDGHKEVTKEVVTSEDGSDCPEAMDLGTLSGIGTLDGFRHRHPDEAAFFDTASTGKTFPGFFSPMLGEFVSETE

[14] = biological target: B1; assay: Y2H, baits tested against each other
[15] = biological target: B5; assay: Y2H, baits tested against each other
[16] = biological target: T2, LZIP (Genbank ID: AF029674); assay: Y2H library screen, binder bait, target prey

B1: no binding [1].

B2: SYN4 (Genbank ID: u07158) (other, human, UniProt Q12846 158-297, looked up)
chain: RQLKITNAGMVSDEELEQMLDSGQSEVFVSNILKDTQVTRQALNEISARHSEIQQLERSIRELHDIFTFLATEVEMQGEMINRIEKNILSSADYVERGQEHVKTALENQKKARKKKVLIAICVSITVVLLAVIIGVTVVG
notes: Prey from brain and muscle libraries; also called Syntaxin 4
B2: no binding [2]; no binding [3]; binds [4].

B3: no binding [5]; no binding [6]; no binding [7].

B4: PPP1R5 (Genbank ID: Y18207) (other, human, UniProt Q9UQK1 1-317, looked up)
chain: MSCTRMIQVLDPRPLTSSVMPVDVAMRLCLAHSPPVKSFLGPYDEFQRRHFVNKLKPLKSCLNIKHKAKSQNDWKCSHNQAKKRVVFADSKGLSLTAIHVFSDLPEEPAWDLQFDLLDLNDISSALKHHEEKNLILDFPQPSTDYLSFRSHFQKNFVCLENCSLQERTVTGTVKVKNVSFEKKVQIRITFDSWKNYTDVDCVYMKNVYGGTDSDTFSFAIDLPPVIPTEQKIEFCISYHANGQVFWDNNDGQNYRIVHVQWKPDGVQTQMAPQDCAFHQTSPKTELESTIFGSPRLASGLFPEWQSWGRMENLASYR
notes: Prey from brain, liver and muscle libraries
B4: no binding [8]; no binding [9].

B5: binds [10]; binds [11]; binds [12]. B5: no binding [13].

B6: S100B-2 (other, human, UniProt P04271 1-62, looked up)
chain: MSELEKAMVALIDVFHQYSGREGDKHKLKKSELKELINNELSHFLEEIKEQEVVDKVMETLD
notes: Truncated bait; also called truncated S100B
B6: no binding [14]; no binding [10]; no binding [15]. B6: no binding [11]; no binding [12].

B7: binds [16].
